In US20160053277A1, “Compositions Having Dicamba Decarboxylase Activity and Methods of Use” (PIONEER HI-BRED INTERNATIONAL, INC., priority 2013, published 2016):
Positions count from the first letter of the chain named. Names and notes keep the numbering of the source.

B1: 48 (protein, listed as Amycolatopsis mediterranei)
chain: MASMKLYGLEEHFVTADVIEAWRRRDPGLAEPMMKWAVASDITPALLDVDGGRIAAMDDAGIDTTVLSLTTPGLQNLDAAEAVALQAPTNDLIAAAVRRHPGRFQGFATLATSAPAAAADELRRAVTELGLNGALVNANSRGRALDAPGFWDIYEAAEDLRAPVYLHPGVPVPAVTEAYYRGFGEPVNSMLATGAFGWHYDAGLTILRMIVAGVFDRFPGLQVILGHWGEVVLFYLDRVAAMDKLTALRRPIAEYFRSNIFITPGGISSHKYLRWSLETVGVERIMYASDYPFNTERAGSARRFLDTAPVDEAGRERIAYRNWEELIAGIRR
B2: 43 (protein, listed as Rhizobium leguminosarum)
chain: MAQGKIALEEHFAIPETLQDSAGFVPGDYWTELSARLLDIQDKRLRLMDTHGIEKMILSLNAPAVQAIPDKAKAVEISRRANDFLAEQCVKNPNRFLGFAALPLQDPDAATQELQRCVTTMGFVGALVNGFSQEGDGTTPLYYDLPQYRPFWAEVEKLDVPFYLHPRNPLPQDSRIYAGHSWLMGPTWAFAQETAVHALRLMGSGLFDEHPALRIIVGHMGEGLPYMMWRIDNRNAWVKVEKSYPAKRPIADYFNENFYITTSGNFRTQSLIDAMLEIGADRILFSADWPFENVDHAANWFDSATISEADRLKIGRTNAVSLFKLDR
B3: 47 (protein, listed as Serratia odorifera)
chain: MAKIICLEEHTLDKALVMASMPAALAQAPFLSDWGKTITDGNLPDRSRPQIEKNDLINVKGADIGRGRLDDMDEAGITMQVLSVGGFPHLISAAEGVDLNRAANDRLANAVNAHPDRFAAFATLPWAQPDAAEKELERAVKELGFKGALLNGRPSIHFLDHPDYDGLLARFNALGVPLYLHPGLPVRSVQQAYYSGFSDEVTARLSMFGWGWHHEAGIHLLRLILSGAFDKYPNLQVISGHWGEMLPFWLQRLDDSLPQAATGLRRTITQTFREQVYVTPSGMLTLPHFQFIYALLGAERILFSVDYPYQTLDGVKAFIQSLPVPEEAKEAIAFRNAERLFGLTS
B4: 49 (protein, listed as Streptomyces sp.)
chain: MAKIIALEEHFSDPAVAKAGAARARALSPGFAASYSPASGLPYSPSPEVLENLAEKRLADMDAGGITMQVLSGLGAQTVPADVAPALVAGSNDKAAAAVRAHPDRFAAFAALPTATPEAAVAELDRSVNELGFVGTLIMGRTEGEFLDAPRFEPILARAAALKVPVFLHPGVPPREITDSNYAAGLPTGIGTRLQTAAWGWHQETAVHFLHLVHSGVLDRYPDLQFILGHWGEMIPFYLDRVDEALPQRATGLDRSFHEYFRENVYLAPSGMWSQAQLRFCLETVPLERIVFAVDYPFIGNEGAVPFLEKAELPQADKRKIAHENAERLLGL
B5: 46 (protein, listed as Rhodococcus opacus)
chain: MARIITLEEHYLDPAIAAASAPLARELSPDFAAAYDPASGLSYTPSAQVLQDLGQRRIADMDTHGISMQVLSCLTTQQVPADVAPDLVRAANDTAAAAVRAHPDRFAAFAALPTTAPDAAATELARCIDDLGFVGTMINGRTDGEFLDAPRFDPILATAAARNVPIYLHPAVPPRATSDSNYAGLAPLVTARLQTSAWGWHQETAVHFLHLVLSGVLDRYPNLQFILGHWGEMIPFYLDRLDEALPQAVTNLDRTISDYVRENVYITPSGMFNQAQLQYCVETLGVDRILYSVDYPFIGNDGAVSFLDEANLPDEAKHQIAHQNTEKLLGL
B6: 44 (protein, listed as Mycobacterium avium)
chain: MARIITVEEHFQHPEVSARVAELTGPAVEGLAEFGNAFSLDPDSTARLGGNRLAHMDQVGIDVQVVSHGNGSPGTLQHPEAVELCRRVNNDLAAQIAENPDRFRGFATLPLYDPAAAAEELRRCVGDLGFVGALIAGSYDGLFLDDERFDPILTAAEAVDFPIYVHPGLPEAPVSQRYYAGSWPASVHMMFSGPAFGWHAEAGIHIVRLILSGALDRHPTLKLLSGHWGELAAFYLERLDETLGLLPTGLERAPSDYYRQQVWITPSGMYNQNQLNFMTAELGAQRIIYSEDFPYVVRDNVSTFLEQAGLSEADTHAIAHTNAEALLRI
B7: 131 (protein)
chain: MSLTKIDAYAHILPAKYYQKMLSVEPNIPNMFPFIKIKTLMDLDERLTKWPDQNTKQVISLANISPEDFTDSKTSAELCQSANEELSNLVDQHPGKFAGAVAILPMNNIESACKVISSIKDDENLVGAQIFTRHLGKSIADKEFRPVLAQAAKLHVPLWMHPVFDARKPDNNLVFSWEYELSQAMLQLVQSDLFQDYPNLKILVHHAGAMVPFFSGRIDHILDEKHAQDFKKFYVDTAILGNTPALQLAIDYYGIDHVLFGTDAPFAVMPSGADQIITQAINDLTISDKDKQKIFHDNYYSLIKEGHHHHHH
modifications: Lactobacillus Acidophilus
B8: 132 (protein)
chain: SLLRFSAVSRHHRGASIDPMTFSEATTPDALTPDAHTPRLLTCDVLYTGMGGAQSPGGVVVVGETVAAAGHPDELRRQYPHAAEERAGAVIAPPPVNAHTHLDMSAYEFQALPYFQWIPEVVIRGRHLRGVAAAQAGADTLTRLGAGGVGDIVWAPEVMDALLAREDLSGTLYFEVLNPFPDKADEVFAAARTHLERWRRLERPGLRLGLSPHTPFTVSHRLMRLLSDYAAGEGLPLQIHVAEHPTELEMFRTGGGPLWDNRMPALYPHTLAEVIGREPGPDLTPVRYLDELGVLAARPTLVHMVNVTPDDIARVARAGCAVVTCPRSNHHLECGTFDWPAFAAAGVEVALGTDSVASGETLNVREEVTFARQLYPGLDPRVLVRAAVKGGQRVVGGRTPFLRRGETWQEGFRWELSRDL
modifications: Deinococcus Radiodurans
B9: 130 (protein)
chain: MGSSHHHHHHSSGRENLYFQGMKSITFEEHYVIEDIQKETMNAISADPKGVPMKVMLEGLEKKTGFTNADELSHHDERIQFMNNQDVQIQVLSYGNGSPSNLVGQKAIELCQKANDQLANYIAQYPNRFVGFATLPINEPEAAAREFERCINDLGFKGALIMGRAQDGFLDQDKYDIIFKTAENLDVPIYLHPAPVNSDIYQSYYKGNYPEVTAATFACFGYGWHIDVGIHAIHLVLSGIFDRYPKLNMIIGHWGEFIPFFLERMDEALFAEHLNHSVSYYFKNSFYITPSGMLTKPQFDLVKKEVGIDRILYAADYPYIEPEKLGVFLDELGLTDEEKEKISYTNGAKLLGLSSNN
modifications: Staphylococcus Aureus
B10: L38I: point mutant of SEQ ID NO: 109 (protein)
chain: MAQGKVALEEHFAIPETLQDSAGFVPGDYWKELQHRLIDIQDTRLKLMDAHGIETMILSLNAPAVQAIPDRRKAIEIARRANDVLAEECAKRPDRFLAFAALPLQDPDAATEELQRCVNDLGFVGALVNGFSQEGDGQTPLYYDLPQYRPFWGEVEKLDVPFYLHPRNPLPQDSRIYDGHPWLLGPTWAFAQETAVHALRLMASGLFDEHPRLNIILGHMGEGLPYMMWRIDHRVAWVKLPPRYPAKRRFMDYFNENFHITTSGNFRTQTLIDAILEIGADRILFSTDWPFENIDHASDWFNATSIAEADRVKIGRTNARRLFKLDGA
modifications: Dicamba decarboxylase variant clone: DC.4.032
B11: D42A: point mutant of SEQ ID NO: 109 (protein)
chain: B10 chain with I38L, D42A
modifications: Dicamba decarboxylase variant clone: DC.4.032
B12: A50K: point mutant of SEQ ID NO: 109 (protein)
chain: B10 chain with I38L, A50K
modifications: Dicamba decarboxylase variant clone: DC.4.032
B13: D42M: point mutant of SEQ ID NO: 109 (protein)
chain: B10 chain with I38L, D42M
modifications: Dicamba decarboxylase variant clone: DC.4.032
B14: G52E: point mutant of SEQ ID NO: 109 (protein)
chain: B10 chain with I38L, G52E
modifications: Dicamba decarboxylase variant clone: DC.4.032
B15: D42S: point mutant of SEQ ID NO: 109 (protein)
chain: B10 chain with I38L, D42S
modifications: Dicamba decarboxylase variant clone: DC.4.032
B16: T43C: point mutant of SEQ ID NO: 109 (protein)
chain: B10 chain with I38L, T43C
modifications: Dicamba decarboxylase variant clone: DC.4.032

test: 14C assay with IPTG-induced recombinant E. coli cells: 14CO2 captured from [14C]-carboxyl-labeled dicamba; conditions: among the 108 sequences tested, recombinant E. coli cells

Row | Molecule | decarboxylation activity of dicamba
1 | B1 | showed decarboxylation activity of dicamba
2 | B2 | showed decarboxylation activity of dicamba
3 | B3 | showed decarboxylation activity of dicamba
4 | B4 | showed decarboxylation activity of dicamba
5 | B5 | showed decarboxylation activity of dicamba
6 | B6 | showed decarboxylation activity of dicamba

same assay, conditions: dicamba decarboxylation activity of the protein of the given SEQ ID NO; High / Low / No

Row | Molecule | Enzymatic Detection level
7 | B1 | High
8 | B2 | High
9 | B3 | High
10 | B4 | High
11 | B5 | High
12 | B6 | High

same assay, conditions: induced recombinant E. coli cells, [14C]-carboxyl-labeled dicamba, 14CO2 capture

Row | Molecule | Dicamba Decarboxylase Activity
13 | B1 | High
14 | B2 | High
15 | B3 | High
16 | B4 | High
17 | B5 | High
18 | B6 | High

test: Saturation mutagenesis of SEQ ID NO:109: dicamba decarboxylation activity of point mutants (carbon dioxide released); conditions: decarboxylation activity (carbon dioxide released) of point mutant compared with unmutated backbone protein; backbone SEQ ID NO: 109

Row | Molecule | Fold Activity
19 | B1 | 1.5
20 | B2 | 1
21 | B7 | 1.6
22 | B3 | 1.2
23 | B8 | 1.6
24 | B9 | 1.2
25 | B4 | 2
26 | B5 | 1.1
27 | B6 | 0.7

same assay, conditions: dicamba decarboxylation activity of point mutants of SEQ ID NO: 109, relative to unchanged template

Row | Molecule | Average Activity (Fold of SEQ ID NO: 109)
28 | B10 | 2.0 Fold of SEQ ID NO: 109
29 | B11 | 2.0 Fold of SEQ ID NO: 109
30 | B12 | 1.9 Fold of SEQ ID NO: 109
31 | B13 | 2.4 Fold of SEQ ID NO: 109
32 | B14 | 3.1 Fold of SEQ ID NO: 109
33 | B15 | 2.0 Fold of SEQ ID NO: 109
34 | B16 | 1.7 Fold of SEQ ID NO: 109

same assay, conditions: point mutation in SEQ ID NO: 109

Row | Molecule | Average Activity (Fold of SEQ ID NO: 109)
35 | B10 | 2.0 Fold of SEQ ID NO: 109
36 | B12 | 1.9 Fold of SEQ ID NO: 109
37 | B13 | 2.4 Fold of SEQ ID NO: 109
38 | B14 | 3.1 Fold of SEQ ID NO: 109
39 | B16 | 1.7 Fold of SEQ ID NO: 109
